Laboratory results taken from the DeepSol protein solubility set.

Experiment: soluble on expression in E. coli; label from the status in PepcDB or PDB records

Row | Sequence | soluble on expression in E. coli
1 | AGVFNLEGFGPVSRAMGGTGAAFDIGPAAMMENPATLGLMGEGRHFSLGLDVVSTDIKVTNTATGETASSGNHGNNNGPYFAPQTAFVYRQGRYAFGAGIFAEGGLGTQYGGSSFLSRTSNGVDTGLDQFSRLLVLRVPFSAAYHVTDKLTVGASVDAVWTSLNLGTLLDVSQIGTLAGQGRVSGTLVPTLLGVPGLSGGYIDFSRNAPVGGGVQAWGIGGRLGLTYQVTPDTRIGAAYQAKTHVGDLTGQATLSAVSSVAGNIPLKGDVTVRNFQMPAQLTVGISHQFNDQLSVSADYQRVFWSSVMKDMNVGFVQSGSAANLDLSLPQNYRDISVFGIGAEYRYNAKWTFRGGFHYAQEAIPGNMLLAVVPATPTTSLTGGVSYAIGKNDVIDFALSVALRKTLDNASQPNTAVPISVTHSQVNAVIAYQKRFHHHHHH | soluble
2 | AGWQSYVDNLMCDGCCQEAAIVGYCDAKYVWAATAGGVFQSITPIEIDMIVGKDREGFFTNGLTLGAKKCSVIRDSLYVDGDCTMDIRTKSQGGEPTYNVAVGRAGRALVIVMGKEGVHGGTLNKKAYELALYLRRSDV | soluble
3 | AHHHHHHASAKWVCKICGYIYDEDAGDPDNGISPGTKFEELPDDWVCPICGAPKSEFEKLEDGSIEIRTHTALHVLKGAVVKVLGEGAKWTASVYVNGNHGRLTVKFNRKPTHEEIREIERLANEKIKENVPIQIYELSREEAEKIFGDEMYDLFPVPEHVRTLKVVVIEDWNVNACNKEHTKTTGEIGEIKIRKVRFRKSKELLEISFDVL | soluble
4 | AHHHHHHGSEAWRGRSQAVVDNLAPRVVDMLVPEGFKPTQEEQLSSYDVEKKELATVYMITLVSGSGEKEEEVEEETPTQTETQTPTETRTETKTPTETTTTTPTETKETPTQTTTTQPARTETQGGICGPGLIVLLAALGVLRRRS | not soluble
5 | AHHHHHHGSEKPRFKGHLKLLILKLLEENPLHGYGIMTRLEETFGIKVSPGAIYPILSSLRKSGLIEVAGEGKREKKLHKITEKGREYLRKHEDEVKEALEIANKLKEFSELGGKEVAQVLREVVENIDKLSEEQKAALAREFSNFVKRIKLILLGGEQYGGNNSGEPR | soluble
6 | AHHHHHHGSEYTIVDGEEYIEEIKKLDREISYSFVRFPISYEEYEERHEELFESLLSQGEHKFFVALNERSELLGHVWICITLDTVDYVKIAYIYDIEVVKWARGLGIGSALLRKAEEWAKERGAKKIVLRVEIDNPAVKWYEERGYKARALIMEKPI | soluble
7 | AHHHHHHGSGETLRIAFIYDVIYPWVKGGVERRLYEIAKRLAEKHEVHIYGYKHWDGKKIQEMNGIFYHGTIKPKKIYHGNRRAILPPIFHSINLLFLLKGQHLDIIDCQATPYFPCYASRVSNSNLVITWHEFWGNYWLKYLGRAGFFGKIIERGLFVLTDNHIAVSLKTKKDLYKAGLRKNIYVVPNGIDFEKIQEIKPSSYTSDIIFVGRLIKEKNVPLLLKALTIIKQDIPDVKAVVVGDGPEREYLEKLSFKLNLQDNVKFLGFLNRYEDVVALMKASKVFAFPSLREGFGIVVIEANASGLPVVTVEHEMNASKDLILEWKNGFIAKVNEKDFAEKILIALEKRKKMKKLSTEIARKYNWNEIVKKLERYYRWIA | soluble
8 | AHHHHHHGSGRDKKNTALLDIARDIGGDEAVEVVKALEKKGEATDEELAELTGVRVNTVRKILYALYDAKLATFRRVRDDETGWYYYYWRIDTKRLPEVIRTRKLQELEKLKQMLQEETSETYYHCGTPGHPKLTFDEAFEYGFQCPICGEILYEYDNSKIIEELKKRIEELEIELGLRSPPKEEKPKKATRRKKSRSGKKKK | not soluble
9 | AHHHHHHGSIILDNHFHVDPNHGLFLEAVKQFQRAGGTHLIVVYKTAHDYGFPGLKAEDFMKAMDFHIELVEKINRETQVKAYAVVGVHPAEFDYLARNKGLEFARNEVMKALEYAQKLCLEGKAVGIGEVGRPHYEVPQQIWEVSIEIMKYAMELAKDADCAVQLHTESFNEEKFRELGEYIREVGIKPYKVVKHFSPPLVNVAKEVGVFPSIIASKKNIEEAIKQGNRFLMETDYIDDKRRPGAVLGPKTVPKRTKEFLQRGIFTEEDVYKIHVENPKKVYGIEI | not soluble
10 | AHHHHHHGSISREQILEVLEKYDKEKITIGVIGSHSALDITDGAKEEGFPTLVVAQRGRHKTYEKYFKLRKTRDGLVKGFIDEVIVLEKFSQIIDIQEELRKRNVIFIPNRSFVVYTGIDRVENEFLVPMFGTRSLLRTEERSEEKSYYWLLEKAKLPYPEEVKPEEIDEVGLVIVKLPHAKKRLERGFFTAASYKEFKEKSEKLIRLGVITREDLEKARIERYIIGPVFNFDFFYSPIDEEIELLGIDWRFETSLDGHVRLPAAQQLTLPEWQFEPEYTVCGHASSTLRESLLEKVFDMAEKYVEATKKYYPPGIIGPFTLQTAVDKDLNFYIYDVAPRTGGGTNIHMAMGHPYGNSLWRKPMSTGRRIALEIKRAIELDELEKVVT | not soluble
11 | AHHHHHHGSKDDIVESVETLVRKGMIEEAIKIVENLQENFDKVIALCKIAELTRDESFLEDAIYFLKKIKDHDNKAIGYGEVAKVYALLGYEEESLELFEEAVKLTKNLNPVDKAITLTILANRLALAGFVDLSLEMFQNAFAEIIELNIELTKKTDLIIQLAEILEASGDALDSENALKFYEMAQDIYKNLKLGQREGIIEKKIELTRTLMHTSYPDIRKLAYEGRFIQALHEIEKRFGGNNVIPLLELTAWAYKTNVFERLKLKEITMEKLSASKLSDEEKFKVVQLLLEIDDTLKAYEIAITLESQELREKALVLIGLKMIDEGEVRFVEEKIFPLLSDEKREEFINFLKNLPIA | soluble
12 | AHHHHHHGSKKITISSLLLLLLISTNLNLAYDSQESGIKNIIILIGDGMGMSHVQITKLVYGHLNMEEFPIIGFELTESLSGEVTDSAAAGTAIATGVKTYNRMISVTNITGKVTNLTTLLEIAQVLGKSTGLVTTTRITHATPAVFASHVPDRDMEEEIARQLIAHRVNVLLGGGRKKFDENTLKMAKEQGYNIVFTKEELEKAEGEFILGLFADSHIPYVLDRKPEDVGLLEMTKKAISILEKNPNGFFLMIEGGRIDHAAHENDIASVVAETKEFDDVVGYVLEYAKKRGDTLVIVLADHETGGLGLGLTYGDAINEDVIRNINASVSKIASEIRATNDIKRVIKKYTGFELTEDEINYIEEAINLADEYALQNAIADIINKRVGVGFVSHKHTGAPVSLLAYGPGAENFAGFLHHVDTAKLIAKLMLFGKKDIPVTILGISGVKGDITGDFKVDEQDAYVTLMMLLGERVDTELERKVDMNNNGIIELGDVLLILQES | soluble
13 | AHHHHHHGSNLRNKLKLYVITDRRLKPEVESVREALEGGATAIQMRIKNAPTREMYEIGKTLRQLTREYDALFFVDDRVDVALAVDADGVQLGPEDMPIEVAKEIAPNLIIGASVYSLEEALEAEKKGADYLGAGSVFPTKTKEDARVIGLEGLRKIVESVKIPVVAIGGINKDNAREVLKTGVDGIAVISAVMGAEDVRKATEELRKIVEEVLG | soluble
14 | AHHHHHHGSNSKEFRKIALVGASKNPAKYGNIILKDLLSKGFEVLPVNPNYDEIEGLKCYRSVRELPKDVDVIVFVVPPKVGLQVAKEAVEAGFKKLWFQPGAESEEIRRFLEKAGVEYSFGRCIMVETSNKKIFLEV | soluble
15 | AHHHHHHGSPRWGRGRRRKMRMIEFIPYARHFYPALPRFGPPKPPIIMTYEEFEALRLVDYEGLTQEEAGKRMGVSRGTIWRALTSARKKVAQMLVEGRELIILPQGNEVIKSDEE | not soluble
16 | AHHHHHHGSRELVEIIKGIGIEGAKEVEEKVDRQFYALQYLFRHQDPEMFIKLVIANSLVSYQLTGRGEDWWWEFARYFSGREVDSIWKAYGEFLPKSKNNRRLIEAKLNRIRKVEGFLSTLTLKDLEGYYKNMKMLWKALIKIMGSREDSKTIVFTVKMFGYASRIAFSRFIPYPMEIPIPEDLRIKSVTSKLTQEKPTKFWMKIGQESGVPPLHIDSLIWPLLGNADLTPLDIELRNKLMKLTELLGL | soluble
17 | AHHHHHHGSYILQKNKGVIRVKDIAKMMRVKPPTVVEALKKLRDKGFVKYEEHEHILLTEKGLEVAKKTYSKHQLLTEFFINILGIPPEIAERDACQFEHYVSEVTVHRIREFISYIQQECPYALKQFLKKVREKDQAVAK | not soluble
18 | AHMAMIKMSPEEIRAKSQSYGQGSDQIRQILSDLTRAQGEIAANWEGQAFSRFEEQFQQLSPKVEKFAQLLEEIKQQLNSTADAVQEQDQQLSNNFGLQ | soluble
19 | AIAAAPIESLLNEICESEDPIEELKSLRTAVLATPVSGLRPAVSGARLEIIFSLLNTNDKEQIEVCVEILSRVLQALEPVQLAQNYRTALQSGLNHPDDSVKVLTLTQIGRVAGHTEGVTQMLNNVEILHDVIQCISVERIAVAKEAIAALSKLSNTKAGLDALFRSDLLNKLKDVMLTSDIIRYRVYELIVEVSTVSPVSLGYCANSGLISQMLEELTGDDVLVRATAIEMVTNLAQSQHGRQYLAQQGIMDKISSVQKIFGAHNYLKLKTYLNEGSYYVTAVSAVTTEGAD | soluble
20 | AIAADGQMPFSCHYPSRLRRDPFRDSPLSSRLLDDGFGMDPFPDDLTASWPDWALPRLSSAWPGTLRSGMVPRGPTATARFGVPAEGRTPPPFPGEPWKVCVNVHSFKPEELMVKTKDGYVEVSGKHEEKQQEGGIVSKNFTKKIQLPAEVDPVTVFASLSPEGLLIIEAPQVPPYSTFGESSFNNELPQDSQEVTCT | soluble
21 | AIADELNSPLGERAQGASLAHVVWSDPQWLERYPLTFENVLTYFSRSPFYDPTCNNELVRMQMHPELQGEMLYYTQREEELLLGMQGVEYVPLCSSDAHELFIIRKQVRRSADEVHVTNLYYILYGQVYEAPAFSTVLLVRLRQSADFLVRSLGLLRQWLSKKEYGEPGATGHGHEDTLLLQLLRKAQQRNRQL | soluble
22 | AIADTRSLQDFQDLCTFDVFKSFGHYYGYGVDQQALIDQEFKRIKGVTYLDHAGTTLFPESLIKGFHDDIPRNVYGNPHSHNSSSRLTHDTVESVRYKILAHFNTSPEDYSVIFTSGCTAALKLVADTFPWKPMSNKEPGSQFCYLTDNHTSVVGIRGATALQGVGTISVSPREVETRARNKTQTNGEEECSTPHLFCYPAQSNFSGRKYSLSYVKGIQSQQLYPACEHHGQWFVLLDAACFVSCSPLDLSQYPADFVPISFYKMFGFPTGLGALLVRNEAAEVLRKTYFGGGTAAAYLVEENYFIPKPNLASR | soluble
23 | AIALPADGIVCFPGQTWEKVLSKVKKAVVFMDDRCSESLHWNGGAALLFEAGARNIKQFSSFEAGAQNEPKAVFVVSTVLKGRTADIIKDIISLSHFQYCVVFTTVPHSIHLLANNVNADLEGNPVFEQFEEKLCEWMGDMNYTAEVMHAPVVFAPLTEHLHLLPAFSNLFPLLDVDLESINEKRPEKKRFGSLMDMDVHSLPPGLQIQIKTLALTLNGLFEFISTREESFSVGPMSRLIATELANLPQAKNRRKTAPNKASVVFVDRTLDLTGAVGHHGDNLAEKILSVLPQLPGHVTDVQVDMLELTHLKPTTDTKGILAPGCLAQNQSATAKLLWETMLVAKQKEAVIEVRRQLVEAASKENLPIKMSLGRVTAEQLCSYVQLFRDSWGALESHSGVLQLGLAAAQALRHPALQRWDACLAFERLLLQALGDSDLAGVLKQLLPLIKSSESGTGSDLSMDDLLVLLVYVYSVAKEACSGGSEEEKQVEKVEQELIGALTLRLTRETTLSPLVQEVTGVSCPEELTMECAHSVLESMFGTLRGVARARDHLKNFSSVFTPGDGAHQDQHRYILILMIQDQHQ | soluble
24 | AIAPLGEEKNGKCDGSIYVNNPHLDSMTDDILYHFNLGTSTHDLPKMFGDVKFVCVGGSPWRMKSFTEYIAKELGLVDPNAEYPNICAGTDRYAMYKVGPVLSVSHGMGIPSISIMLHELIKLLYHARCTDVTVVRIGTSGGIGLKPGTVVVTKQSVDSLFQPHLEQTILGKPVVRSTELDKELAEELLQCGKELGEFEIIIGNTMCTLDFYEGSNVFEDKCTRIAAYSFKIHVL | soluble
